The values that follow come from patent US20240336665A1 (ACROIMMUNE GUANGZHOU BIOTECH, published 2024).

B2: HMGB1-His tag protein (AcroBiosystems, HM1-H5220, HEK293 cell derived) (other, human, UniProt P09429 1-215, looked up)
chain: MGKGDPKKPRGKMSSYAFFVQTCREEHKKKHPDASVNFSEFSKKCSERWKTMSAKEKGKFEDMAKADKARYEREMKTYIPPKGETKKKFKDPNAPKRPPSAFFLFCSEYRPKIKGEHPGLSIGDVAKKLGEMWNNTAADDKQPYEKKAAKLKEKYEKDIAAYRAKGKPDAAKKGVVKAEKSKKKKEEEEDEEDEEDEEEEEDEEDEDEEEDDDDE
notes: Bought reagent; also called recombinant human HMGB1-His tag protein; High Mobility Group Box 1; not shown: His tag

The target of assay [1] is B2. Description: ELISA, HMGB1-His coated, detection by anti-human IgG-Fc-HRP. As to the method: In-brief, 96-well plates were coated (100 μL per well) with 0.1 μg/mL HMGB1-His tag protein (AcroBiosystems, HM1-H5220, HEK293 cell derived) at 4° C. overnight. After blocking with SuperBlock (Thermo, 37515) at room temperature for 1 hour, 100 μL of 2-fold serial dilutions of AI-72 or CD24Fc (all starting at 1.5 mg/ml, and diluted in PBST-1% BSA solution containing 1 mM MgCl2 and 1 mM CaCl2) were added. The bound AI-072 or CD24Fc protein was then detected by adding HRP-labeled goat anti-human IgG-Fc antibody (1:1000, Invitrogen, A18829), followed by the addition of tetramethylbenzidin (TMB) substrate. After a color development at room temp for 15 mins, 2N HCl stop solution was then added into the plate. The OD values at a wavelength of 450 nm in each well were then measured.
(ELISA stands for enzyme-linked immunosorbent assay.)

Assay [2] has as its target T1, Siglec10-mIgG2aFc fusion protein (AcroBiosystems, SI0-H525b, HEK293 cell derived) (human, UniProt Q96LC7 17-546).
T1 construct: Bought reagent; also called recombinant human Siglec-10-mIgGFc protein; not shown: mouse IgG2a Fc
T1 sequence (looked up): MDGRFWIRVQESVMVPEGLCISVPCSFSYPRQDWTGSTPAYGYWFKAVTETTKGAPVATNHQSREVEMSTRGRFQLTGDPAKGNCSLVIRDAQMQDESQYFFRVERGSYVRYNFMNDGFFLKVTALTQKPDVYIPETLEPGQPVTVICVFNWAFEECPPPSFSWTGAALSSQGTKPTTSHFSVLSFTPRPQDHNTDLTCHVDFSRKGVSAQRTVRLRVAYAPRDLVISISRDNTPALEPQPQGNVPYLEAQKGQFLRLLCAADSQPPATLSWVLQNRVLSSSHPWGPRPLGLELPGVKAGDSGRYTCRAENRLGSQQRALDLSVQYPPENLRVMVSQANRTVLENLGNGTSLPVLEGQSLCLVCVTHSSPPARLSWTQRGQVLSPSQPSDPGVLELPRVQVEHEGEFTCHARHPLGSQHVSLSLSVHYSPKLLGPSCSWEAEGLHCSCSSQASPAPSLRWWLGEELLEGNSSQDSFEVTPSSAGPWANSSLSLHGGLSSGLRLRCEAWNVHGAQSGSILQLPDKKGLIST
The experiment in a line: ELISA, Siglec10-mIgG2aFc coated, detection by anti-human IgG-Fc-HRP. The method, then: In-brief, 96-well plates were coated (100 μL per well) with 0.2 μg/mL of Siglec10-mIgG2aFc fusion protein (AcroBiosystems, SI0-H525b, HEK293 cell derived) at 4° C. overnight. After blocking with SuperBlock (Thermo, 37515) at room temperature for 1 hour, 100 μL of 2-fold serial dilutions of either AI-072 or CD24Fc (all starting at 1.5 mg/ml) were added. The bound AI-072 or CD24Fc protein was then detected by HRP-labeled goat anti-human IgG-Fc antibody (1:5000, Invitrogen, A18829) followed by the addition of Tetramethylbenzidin (TMB) substrate. After a color development at room temp for 15 min, 2N HCl stop solution was added into the plate. The OD values at a wavelength of 450 nm (OD 450 nm) in each well were then measured.

The target of assay [3] is T2, human IgG1-Fc control protein (human, UniProt P01857-1 100-330 = IgG part, limits assumed).
T2 construct: domain: Fc; Control in the pull-down assay; also called human IgG-Fc control
The experiment in a line: protein A bead pull-down, SDS-PAGE with Coomassie staining. The method, then: FIGS. 8A-8B illustrate the association of AI-072 protein with human HMGB1 in a pull-down assay. Recombinant HMGB1-His protein sample was incubated with AI-072, human IgG-Fc control, or none for 5 min, then add protein A-conjugated beads to the mixture to capture (or pull-down) the bound proteins. The captured proteins were then separated in an SDS-PAGE gel and visualized by Coomassie Brilliant Blue dye staining. […] As indicated on the top of each gel, lane 1 represents the sample containing HMGB1 only, lane 2 represents the sample containing HMGB1 and human IgG-Fc, and lane 3 represents the sample containing HMGB1 and AI-072, lane M is the protein molecule weight marker sample.
In-brief, 8 μL of 500 μg/mL HMGB1-His protein was mixed with either about 3 μg AI-072 or human IgG1-Fc control protein or none, and set at room temp for 5 min. The mixtures were then incubated with protein A-conjugated beads to capture (or pull-down) the bound proteins. The captured proteins were separated in an SDS-PAGE gel and visualized by Coomassie Brilliant Blue dye staining.

B1: CD24Fc fusion protein (Fc fusion, UniProt P25063 27-56, looked up)
chain: SETTTGTSSNSSQSTSNSGLAPNPTNATTK
notes: Comparator protein; also called CD24Fc protein; not shown: Fc detected by anti-human IgG-Fc antibody
As a reminder, the EC50 is the concentration that produces a half-maximal response. A lower EC50 goes with an effect from little substance. As for B1, the results for the EC50 in assay [1] and in assay [2] were 51 µM and 2.85 µM, respectively.

In the case of B2, the binding result in assay [3] is “no binding (tested: about 3 ug)”.
